The target of this experiment is methemoglobin (Homo sapiens, UniProt P69905). Description: ELISA.

Results on 1 molecule are retold here after article PMC3359286 (2012).

Sequence of methemoglobin (P69905 2-142, chain 1 of 2): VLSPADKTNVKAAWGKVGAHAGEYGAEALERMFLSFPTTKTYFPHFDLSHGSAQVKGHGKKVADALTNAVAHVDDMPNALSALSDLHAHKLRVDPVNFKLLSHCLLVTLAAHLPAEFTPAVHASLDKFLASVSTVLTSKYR
Sequence of methemoglobin (chain, as listed by the source, chain 2 of 2): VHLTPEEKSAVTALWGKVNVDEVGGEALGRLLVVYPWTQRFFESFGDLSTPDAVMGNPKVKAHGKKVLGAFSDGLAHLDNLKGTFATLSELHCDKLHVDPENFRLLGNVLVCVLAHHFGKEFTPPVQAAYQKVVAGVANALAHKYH

B1: Shr (protein)
chain: QEPLVQSQLVTTVALTQDNRLLVEEIGPYASQSAGKEYYKHIEKIIVDNDVYEKSLEGERTFDINYQGIKINADLIKDGKHELTIVNKKDGDILITFIKKGDKVTFISAQKLGTTDHQDSLKKDVLSDKTVPQNQGTQKVVKSGKNTANLSLITKLSQEDGAILFPEIDRYSDNKQIKALTQQITKVTVNGTVYKDLISDSVKDTNGWVSNMTGLHLGTKAFKDGENTIVISSKGFEDVTITVTKKDGQIHFVSAKQKQHVTAEDRQSTKLDVTTLEKAIKEADAIIAKESNKDAVKDLAEKLQVIKDSYKEIKDSKLLADTHRLLKDTIESYQAGEVSINNLTEGTYTLNFKANKENSEESSMLQGAFDKRAKLVVKADGTMEISMLNTALGQFLIDFSIESKGTYPAAVRKQVGQKDINGSYIRSEFTMPIDDLDKLHKGAVLVSAMGGQESDLNHYDKYTKLDMTFSKTVTKGWSGYQVETDDKEKGVGTERLEKVLVKLGKDLDGDGKLSKTELEQIRGELRLDHYELTDISLLKHAKNITELHLDGNQITEIPKELFSQMKQLRFLNLRSNHLTYLDKDTFKSNAQLRELYLSSNFIHSLEGGLFQSLHHLEQLDLSKNRIGRLCDNPFEGLSRLTSLGFAENSLEEIPEKALEPLTSLNFIDLSQNNLALLPKTIEKLRALSTIVASRNHITRIDNISFKNLPKLSVLDLSTNEISNLPNGIFKQNNQLTKLDFFNNLLTQVEESVFPDVETLNLDVKFNQIKSVSPKVRALIGQHKLTPQKHIAKLEASLDGEKIKYHQAFSLLDLYYWEQKTNSAIDKELVSVEEYQQLLQEKGSDTVSLLNDMQVDWSIVIQLQKKASNGQYVTVDEKLLSNDPKDDLTGEFSLKDPGTYRIRKALITKKFATQKEHIYLTSNDILVAKGPHSHQKDLVENGLRALNQKQLRDGIYYLNASMLKTDLASESMSNKAINHRVTLVVKKGVSYLEVEFRGIKVGKMLGYLGELSYFVDGYQRDLAGKPVGRTKKAEVVSYFTDVTGLPLADRYGKNYPKVLRMKLIEQAKKDGLVPLQVFVPIMDAISKGSGLQTVFMRLDWASLTTEKAKVVKETNNPQENSHLTSTDQLKGPQNRQQEKTPTSPPSAATGIANLTDLLAKKATGQSTQETSKTDDTDKAEKLKQLVRDHQTSIEGKTAKDTKTKKSDKKHRSNQQSNGEESSSRYHLIAGLSSFMIVALGFIIGRKTLFK
modifications: holoShr (heme-bound), ferric hemoglobin (metHb)
A word on the Kd: it is the free concentration of one partner at which half of the binding sites on the other are occupied at equilibrium, for simple one-to-one binding. Read a high Kd as lower affinity. Molecule B1 showed a Kd of 50 nM.
